± gives the uncertainty stated by the source.
B1: Homeobox protein cut-like 2, residues 895 to 963; numbered along this chain, O14529 (parent)
chain: EVDTLELTRQVKEKLAKNGICQRIFGEKVLGLSQGSVSDMLSRPKPWSKLTQKGREPFIRMQLWLSDQL

Variants of: B1
Assay: abundance fitness (aPCA) (normalised: wild type 0, dead -1); higher = more abundant; growth selection in yeast, the domain comes from the species named
Conditions: Homo sapiens

Compared with EVDTLELTRQVKAKLAKNGICQRIFGEKVLGLSQGSVSDMLSRPKPWSKLTQKGREPFIRMQLWLSDQL [E13A], EVDTLELTRQVKGKLAKNGICQRIFGEKVLGLSQGSVSDMLSRPKPWSKLTQKGREPFIRMQLWLSDQL [E13G] is lower in abundance fitness: -0.072 ± 0.044 for the first, -0.2 ± 0.046 for the second.

EVDTLELTRQVKEKLANNGICQRIFGEKVLGLSQGSVSDMLSRPKPWSKLTQKGREPFIRMQLWLSDQL [K17N] and EMDTLELTRQVKEKLAKNGICQRIFGEKVLGLSQGSVSDMLSRPKPWSKLTQKGREPFIRMQLWLSDQL [V2M] are within error of each other in abundance fitness: -0.011 ± 0.074 for the first, 0.077 ± 0.038 for the second.

EVDTLELTRQVKEKLAKNGICQRIFGEKVLGLSQGSVSEMLSRPKPWSKLTQKGREPFIRMQLWLSDQL [D39E] and EVDTLELTRQVKEKLAKNFICQRIFGEKVLGLSQGSVSDMLSRPKPWSKLTQKGREPFIRMQLWLSDQL [G19F] are within error of each other in abundance fitness: 0.029 ± 0.31 for the first, -0.226 ± 0.041 for the second.

Compared with EVDTLELTRQVKEKLAKNLICQRIFGEKVLGLSQGSVSDMLSRPKPWSKLTQKGREPFIRMQLWLSDQL [G19L], EVDTLELTRQVKEKLAKNIICQRIFGEKVLGLSQGSVSDMLSRPKPWSKLTQKGREPFIRMQLWLSDQL [G19I] is lower in abundance fitness: -0.31 ± 0.025 for the first, -0.434 ± 0.057 for the second.

Compared with EVDTLELTRQVKEKLAKNGICQRIFGEKVLGLSQGSVSDMLSRPKPWSKLTQKGREPFFRMQLWLSDQL [I59F], EVDTLELTRQVKEKLAKNGICQRIFGEKVLGLSQKSVSDMLSRPKPWSKLTQKGREPFIRMQLWLSDQL [G35K] is higher in abundance fitness: -0.212 ± 0.072 for the first, 0.124 ± 0.043 for the second.

EVDTLILTRQVKEKLAKNGICQRIFGEKVLGLSQGSVSDMLSRPKPWSKLTQKGREPFIRMQLWLSDQL [E6I] and EVDTLTLTRQVKEKLAKNGICQRIFGEKVLGLSQGSVSDMLSRPKPWSKLTQKGREPFIRMQLWLSDQL [E6T] are within error of each other in abundance fitness: -0.196 ± 0.077 for the first, -0.129 ± 0.08 for the second.

Going from EVDTLELTRQVKEKLAKNGICQRIFGEKVLILSQGSVSDMLSRPKPWSKLTQKGREPFIRMQLWLSDQL [G31I] to EVDTLELTRQVKEKLAKNGICQRIFGEKVLCLSQGSVSDMLSRPKPWSKLTQKGREPFIRMQLWLSDQL [G31C], the abundance fitness rises from -0.712 ± 0.068 to -0.257 ± 0.044.

EVDTLETTRQVKEKLAKNGICQRIFGEKVLGLSQGSVSDMLSRPKPWSKLTQKGREPFIRMQLWLSDQL [L7T] and EVDTLEATRQVKEKLAKNGICQRIFGEKVLGLSQGSVSDMLSRPKPWSKLTQKGREPFIRMQLWLSDQL [L7A] are within error of each other in abundance fitness: -0.077 ± 0.041 for the first, -0.125 ± 0.04 for the second.

EVDTLECTRQVKEKLAKNGICQRIFGEKVLGLSQGSVSDMLSRPKPWSKLTQKGREPFIRMQLWLSDQL [L7C] and EVDTLEITRQVKEKLAKNGICQRIFGEKVLGLSQGSVSDMLSRPKPWSKLTQKGREPFIRMQLWLSDQL [L7I] are within error of each other in abundance fitness: -0.164 ± 0.051 for the first, -0.058 ± 0.067 for the second.

First: EVDTLELTRQVKEKGAKNGICQRIFGEKVLGLSQGSVSDMLSRPKPWSKLTQKGREPFIRMQLWLSDQL [L15G]
Second: EVDTLELTRQVKEKLAKNGICQRIFGEKVLGLSQGSVSDMLSRPKPWSKLTQCGREPFIRMQLWLSDQL [K53C]
The abundance fitness of the first is higher: -0.113 ± 0.027 for the first, -0.405 ± 0.16 for the second.

First: EVDTLELTRQVKEKLAKNGICQRIFGEKVLGLSQGSVSDMLSRPKPWSKLTQLGREPFIRMQLWLSDQL [K53L]
Second: EVDTLELTRQVKEKLAKNGICQRIFGEKVLGLSQGSVSDMLSRPKPWSKLTQWGREPFIRMQLWLSDQL [K53W]
The abundance fitness of the first is higher: -0.101 ± 0.051 for the first, -0.298 ± 0.061 for the second.

Going from EVDTLELTRQVKEKLAKNGICQRIFGEKVLGLSQGSVSDMLSRPKPWSKLTQKGGEPFIRMQLWLSDQL [R55G] to EVDTLELTRQVKEKLAKNGICQRIFGEKVLGLSQGSVSDMLSRPKPWSKLTQKGTEPFIRMQLWLSDQL [R55T], the abundance fitness rises from -0.674 ± 0.06 to -0.359 ± 0.058.

First: EVDTLELTRQVKEKLAKNGICQRISGEKVLGLSQGSVSDMLSRPKPWSKLTQKGREPFIRMQLWLSDQL [F25S]
Second: EVDTLELTRQVKEKLAKNGICQRILGEKVLGLSQGSVSDMLSRPKPWSKLTQKGREPFIRMQLWLSDQL [F25L]
The abundance fitness of the first is lower: -0.721 ± 0.061 for the first, -0.351 ± 0.033 for the second.

EVDTLELTRQVKEKLAKNGICQRIFGEKVLGLSQGSVSDGLSRPKPWSKLTQKGREPFIRMQLWLSDQL [M40G] and EVDTLELTRQVKEKLAKNGICQRIFGEKVLGLSQGSVSDQLSRPKPWSKLTQKGREPFIRMQLWLSDQL [M40Q] are within error of each other in abundance fitness: -0.298 ± 0.077 for the first, -0.29 ± 0.063 for the second.

EVDTLELTRQVKEKLAKNGICQRIFGEKVLGLSQGSVSDFLSRPKPWSKLTQKGREPFIRMQLWLSDQL [M40F] and EVDTLELTRQVKEKLAKNGICQVIFGEKVLGLSQGSVSDMLSRPKPWSKLTQKGREPFIRMQLWLSDQL [R23V] are within error of each other in abundance fitness: -0.189 ± 0.083 for the first, -0.162 ± 0.03 for the second.

First: EVDTLELTRQVKEKLAKNGICQPIFGEKVLGLSQGSVSDMLSRPKPWSKLTQKGREPFIRMQLWLSDQL [R23P]
Second: EVDTLELTRQVKEKLAKNGKCQRIFGEKVLGLSQGSVSDMLSRPKPWSKLTQKGREPFIRMQLWLSDQL [I20K]
The abundance fitness of the first is lower: -0.627 ± 0.051 for the first, -0.32 ± 0.051 for the second.

Going from EVDTLELTRQPKEKLAKNGICQRIFGEKVLGLSQGSVSDMLSRPKPWSKLTQKGREPFIRMQLWLSDQL [V11P] to EVDTLELTRQVKEKLAKNGICQRIFGEKVLGLPQGSVSDMLSRPKPWSKLTQKGREPFIRMQLWLSDQL [S33P], the abundance fitness rises from -0.141 ± 0.051 to 0.03 ± 0.032.

EVDTLELTRQVKEKLAKNGICQRIFGKKVLGLSQGSVSDMLSRPKPWSKLTQKGREPFIRMQLWLSDQL [E27K] and EVDTLELTRQVKEKLAKNGICQRIFGEKVLGLSQGSVSDMLSRPKPWSKLTQKGREPFIRMQLWLSDQH [L69H] are within error of each other in abundance fitness: 0.001 ± 0.032 for the first, -0.182 ± 0.17 for the second.

EVDTLELTRQVKEKLAKNGICQRIFGEKVLGLSQGSVSDMLSRPKPWSKLTQKGREPFIRMQLWLSDQE [L69E] and EVDTLELTRQVKEILAKNGICQRIFGEKVLGLSQGSVSDMLSRPKPWSKLTQKGREPFIRMQLWLSDQL [K14I] are within error of each other in abundance fitness: -0.068 ± 0.064 for the first, -0.022 ± 0.051 for the second.

For EVDTLELTRQVFEKLAKNGICQRIFGEKVLGLSQGSVSDMLSRPKPWSKLTQKGREPFIRMQLWLSDQL [K12F], the abundance fitness was -0.748 ± 0.045.

— the Human Domainome abundance scans (Beltran et al. 2025)
